From PMC3596245
Where two headings read alike, the source gives them in different places.

Legend:
[1] = target: NMMIIA rod filaments (residues 1338-1960) (human) (UniProt P35579); test: co-sedimentation
[2] = target: NMMIIA rod filaments (residues 1338-1960) (human) (UniProt P35579); test: co-sedimentation; remark: listed apart in the source

Row | Kd [1] | Kd [2] | Substance
1 | 1310 nM | 212 nM | GST-gelsolin C-terminal half (G4-G6) (domain or fragment)
2 | 495 nM | 220 nM | GST-gelsolin N-terminal half (G1-G3) (domain or fragment)
3 | 423 nM | 158 nM | GST-gelsolin full-length (G1-G6) (from UniProt P06396 28-782) (natural protein)
